We go through one molecule from article PMC5435865, “A biochemical framework for eIF4E-dependent mRNA export and nuclear recycling of the export machinery” (RNA, 2017).

The target in this assay is T1, ^15N-labeled human eIF4E (human, UniProt P06730 1-217).
T1 construct: human eukaryotic translation initiation factor eIF4E, in pET-15b; Uniformly ^15N-labeled; also called cap-free eIF4E; source: overexpressed and purified as described in Volpon et al. (2016)
Description: NMR titration; ^1H–^15N HSQC of ~40 µM ^15N-labeled cap-free eIF4E, unlabeled LRP10A added to ratio 1:4; 20°C, 50 mM sodium phosphate pH 7.3, 100 mM NaCl, 1 mM DTT, 7% D2O. To be noted: both partners purified.

T1 sequence (P06730 whole entry): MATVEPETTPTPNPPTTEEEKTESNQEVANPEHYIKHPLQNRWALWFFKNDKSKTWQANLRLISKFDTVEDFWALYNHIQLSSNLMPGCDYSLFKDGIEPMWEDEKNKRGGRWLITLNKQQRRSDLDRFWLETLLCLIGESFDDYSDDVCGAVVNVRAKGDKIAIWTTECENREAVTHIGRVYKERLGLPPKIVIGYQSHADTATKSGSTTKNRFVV

B1: synthetic peptide LRP10A (N-Ac-EGFPIRPHYFWPLLVGRRKEK-NH2) (peptide)
peptide: Ac-EGFPIRPHYFWPLLVGRRKEK-NH2
notes: human LRPPRC, residues 433-453 (helix 10A); source: synthetic peptide, bought: Biomatic Corporation
In the case of B1, the binding result was “binds”.
